Test results: the domain aggregation screens of Martell et al. (2025)

Experiment: soluble fraction after stress (log2 fold change); higher = more stays soluble; pooled small domains, quantitative proteomics
Details: stress: 75 degC
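Also: 20 min heating vs room temperature control held 20 min.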

| Sequence | soluble fraction (log2) |
| --- | --- |
| HMAPAPDEAFAEFVRSSAPSLTRTAWLLTGDRGHAQDLVQNAYAKTLQAWGRLDAEGALAYTRRAVIT | 0.174 |
| HMAPDGIEDKEGWLKVLPMITNLSIQMQNLQARGMDYEHIRNLLHETLLRYDDRIDSNLFIPNV | -0.059 |
| HMAPDNDELEKAKKIVNAFIEAKAKGLGVVSLGTKMIDAPVVKRAQKIIDQTIVMGKLSLNWQDEFFN | -0.208 |
| HMAPEVTVHDGSIVVRGHVGGVTVYDESGRQIASVQSRGAVAIPVPAGHTYLYIVKPEGKPAIKVRAAH | -0.265 |
| HMAPKSALKIIEQISNNPRATMTDLANLTGYSRRWVAQTIKRLQEENIIKRIGSDKSGYWEIIG | -0.807 |
| HMAPLATLEADGNGAVKLPNLAGHAIREVAAALGGANLALIPIGSGTSWKQNPAPGTILHKGDTVTVYF | 0.153 |
| HMAPLEPLTDRETEMLVRLANGASNKVMARESFVSENTIKFHLKNIYAKLGVTSRLQAIAAARNQGLI | -1.31 |
| HMAPLRTQYVNVNYANAAEIKTLISGADKEVGSLLSERGSVVVDKRTNTLIIQDTQARLNDIGDLIEQLD | 0.144 |
| HMAPMYGEFENVRLTDAQLDKLNARFPPEQVQREIEALSGYMRSKGKRYADHYATLLNWLRRDFPP | -0.238 |
| HMAPNVEENSKLIGEIGMTLTPLRPSGIATINNRRVDVVSNGDFIDQDERVMVKRVQGARVVVIPV | 0.168 |
| HMAPPDFTTFMRNYQDMVYSTAVRLIGNETQAEDIAQEVFIKAHAHFENLRTSPSAGGWLKTVATNLSIN | -1.2 |
| HMAPQAETLLRQVMALPSKDRAVLYLHYYEGFSTREVGDMLHISQSAVTTRLLRARKKLKEIL | -0.122 |
| HMAPRLTERERQVLQLIAEGLTSMQIGDRLHIAASTVDVHRRNLMRKLDLHNVADLTRYAITQGISP | -0.792 |
| HMAPRQDIAYYTVKPGDTVLAIAEKFGLQPETLMWSNSIIEQNPDRLSIGDELRILPVDGVLHVVK | 0.129 |
| HMAPRSSAVYFYLSQVALKKNQPRKAEAMARRGLTVSQDANRRRALWQLILRSGQAQNNTRVIREAQQAL | -0.0212 |
| HMAPSLSEYAYEEIKHAIERGVYPPGAKLITQEIADRLGISRTPVVAAVNRLTAEGYADAVPQHGIFVK | -0.073 |
| HMAPVLTRREHEVLHLLTDGLDNRTIARNLFISEATVKFHLHNIMGKFGVHRRAALVSTALRG | -2.22 |
| HMAPVTPEERAQAMEEYKAMVTIEGYTPPKNIIEQNYKRGLWSETMLNMAVTKGAITEAEKLEIMN | 0.463 |
| HMAQIVNLPRKNVNGASYYYYEVQPKETIYSISRKLGVSGAEIQRHNPSVADGLKIGQVLYFPAEG | -0.0642 |
| HMAQLPADMSKVKSADISEAQLQEFIQKATSSGYNMNQIEMEFAKRGMSENEVSLLRPRLRRLMAS | -0.0413 |
| HMAQLSDDEQAIIDTITRRGDATMSELIASVNVSTPRLMSMLIDMEFRSLITALPGGRYQIRLIN | -1.54 |
| HMAQLTPREREVLVLIAEGKSNKEIADQLNIGVRTIETHRERIMRRLNIHSVAGLTKYAIANGLVTL | -0.36 |
| HMAQPIPSGADIRAAREAAGMTLRRFAEYIAGPDFSTWSRYETGKPIRVKNISPEVWQRVRKFIAQNKG | -0.33 |
| HMAQQEMEIIPLRHRQVEQVMPTLRPLLEPGAALSGMNNQLILRASRKNREEIKQALAVIDT | 0.0427 |
| HMAQSEDLMVMAQRILGGPEAQSFFQAEATRQGLAGFLPEPIPDFLQRLERKLSGSVGSATAHAMVAQTMG | 0.0569 |
| HMAQSLAQKINNYILTNRSSIANVAKSIGYSRTTVSRYLAGKYDSDPTDLENKLAEFLAHETGE | -0.253 |

| Sequence | soluble fraction (log2) |
| --- | --- |
| HMAQTEIIRVTKDIKKGDAITADKFEKVKVGAYNLPGNVVKNADELKGKFAAADLVRGDYILTSKLTDNP | 0.183 |
| HMAQVRSTVERRENGTYTVELNLNDDVDNVMRLQLMVATKEMAEDLAQRFQKNPEQVYSQLVTALYG | -0.723 |
| HMAQVSDDAELEKWADTAIDEHPKPVEEYRAGNAASINFLMGQVMKMSRGKANPGAVMQILKQKLD | 0.0191 |
| HMAQVSDTGAIAKIVADAIAANPKQVQQYLDGNEKVLMYLVGQVMKLSKGKANPPMVIQLLKEQLG | -0.125 |
| HMAQVSDTGELEGVVDGVLAANAKSVADFQAGKENAFQYLIGQVMKETKGKANPEVVATLLRTKLS | -0.523 |
| HMARAGKLAQDMAVWTKETMLNTERNFISLRHFKRELLRRTLAPGESEQTVRAMEEAGYIQVKDGLVFPIK | -2.43 |
| HMAREQISVSQMVRDVRDGQVKNIEVLGQELRLSYADGSQKVTRKEEGQQALEILFASDIDLAALDLEVQ | -0.0792 |
| HMARIDYHAMDSDDLSFSEGELLEIYDKPGSFWWKGRSLVSGDEGDIPS | -0.0708 |
| HMARKFQKDTGYLNKKERTWLLDFFPSLKKYLYTGAYIRSIIVVESNVTYTDKELPSNYTFTYKFA | -0.522 |
| HMARKISVEALGKYFPNSPMLAAAVAVTGVMKKDEFIHEMRASYKHKFAKKPEVIDGNMKALTMTFEA | 0.11 |
| HMARNHYETLGVGRTATGDEIRKAYRSEAQKHHPDRGGDAERMQSLNEARDTLLDDQARAAYDQELDL | 0.154 |
| HMARPLLSPREQDVLALIARGFSYSEVARLQAVTVHTIRTHIRNLYAKLSVHSKTEAVFEATRMGLLP | -1.94 |
| HMARRKRDIDSDINVKVFEHWLDNLDSASRESFSAFAEETFSPIQVYLYAKFLGYESSIIAVDHWVAVAYP | 0.135 |
| HMARSVAEFVERGRSGGSLERPKLQRMLEYIQDRPVDFVIVHKIDRLARNRADDAAITKTIRGAGAYLVST | 0.1 |
| HMARTGSEELVGALATVREPLAPWGQVFVQGALWRARSADGGPVDAGQQVVVRAVEGLTLVVEPRD | -0.143 |
| HMARYSMLEEQLLQLINKHGTMSTPKLVEATGAPRSTVTYQLRKLLESGTIERTQPARSPKQSYRIKS | -0.416 |
| HMASATGVVTAASLNVRSGAGTNYSVVNTLAKGTKVTVLNTADGWYEIEATVNNEKITGYVSATYIAMD | -0.538 |
| HMASLSRRELEVLELLALRLTVKEVAERLVISELTAKRHTSNIYQKLGVNRRRDALAAAQARGLLGAR | -3.18 |
| HMASRSQTEIMHLLSSGLPKHELVTALQSLLGISKPTAYKYLSQDVSIAYDHMVKILEYPPFQRVLYQ | -1.93 |
| HMASSVKAPLPGVILDIKVKVGDTIKNGDTVVILEAMKMENNIHSDKDGVVKSIEVNKGDSVLEGATLLTI | 0.33 |
| HMASVDDILDRFKQAAKVTTDADLAKVLGLSRQSIAAARLRAKIPASWFPKMSSLFNISTEWLYRG | -1.18 |
| HMASVRPVAPPDPKTHTRLTYRIRRGDTLERIGRRYRVSIAEIQAWNTLRDPGDILAGQRLVIWIPTS | -2.33 |
| HMATAPQIRAIYALGSKLGINQNSREDNLHQLVYSITGKESIKGLTNYEAARVQSELANMERK | 0.323 |
| HMATEPLQPRVEVLGSTLATTNGARIVGVYDMSGREVSATQLSKGVYIVKVTNGSVTATQKVFI | -0.477 |
| HMATETMGMIIRRLRREHGLTQEELAASIGVTAQAVSKWEKDLGMPDISQIVPLAGAFNVRTDVLFGLE | -2.65 |
| HMATEWLSSKEAAQRLGVSAATLYAYVSRGLLRSEGSSGQRERRYRADDVAQLRRRREVGRKAESIAASTL | -1.31 |

| Sequence | soluble fraction (log2) |
| --- | --- |
| HMATHWHITPNPNNGKFLISGLMQDDSFHLMDASGQWLRQLRTVNQELDLDLQPGVYFLKDNSGSVMKFVV | -1.13 |
| HMATIADILAEHKDKEGPLLPVLHDVQKMFGHVSEEAMREIAQALNLTRAEVYGVVSFYHDFRKEVE | -1.46 |
| HMATIIGSIGIVTQKVGLTGVPGRVYVNNESWAAISANGKEIENDTQVIVVKIDGATLIIEKKG | -2.22 |
| HMATKEQIKRIYGLGAGLGIVGKDKDDMLHELIFSITGKDSVKQLDDSEFKAVQAELINRMKLA | 0.0958 |
| HMATLAVPNLMRLSQGEAMALIRLSGLSIGNVSIDSSMGSPRVIRQEPQASGGMLVLTQGDQVHLWLEGP | -3.75 |
| HMATLQLPVPKITLYPGELIRSDHLTDQRFNARALYHSAVYKSREDIVGKVARRTLLPGQPIPVNALR | -1.07 |
| HMATPKRGFRKQLAPLVQSGTITREEAGELSRSSGDATALRTKIGELMKAGKLTRKEAGELYSDAFPENA | 0.145 |
| HMATPYISMAGIGKSFGPVHALKSVNLTVYPGEIHALLGENGAGKSTLMKVLSGIHEPTKGTITINNIN | 0.458 |
| HMATRAEQMAKTHQAILDTARELFLRNGYDATSTRDIANAIGITQPALYHHFKDKEVIFLAVI | -0.107 |
| HMATSLTEQEKLIFGLLKKQSPIELSSLKEQAGLSNKKWDKAIKGLSTQQLAKVTKTENGLFVHLLQ | 0.00913 |
| HMATTAGIEKYLGSGLIKGIGPIYAKKIVRKFKEDTIRIIDEEPDRLLEVEGIGQKRLEIIKQAWQQQKE | -0.651 |
| HMATVHVDGIQYDFSSPEQAKEFAYKWAKKHNLTWEVHGETIHIK | -0.225 |
| HMATYNEVLKRLIEERKRLGLSQQEMARLVHITQSNYSKVEKGLHRLSYEELKYLSKANVDIFYILT | -0.0786 |
| HMAVANEAIANINMKEVKQAIHNLPEIFKNPFLLYFDGYKYHEIAEMLDEPLGTIKSRIHFARKLLKSHI | -0.889 |
| HMAVDVNKATAAELDSIKGIGPAISAKILEEKKKGGNFKDWNDLVTRVSGVGEANAAKFSSEGLTVGGAS | 0.0168 |
| HMAVELPLETTLDIVRKYARNQEVDRRAERVEAVSAEALQTLAPRGTKLASEIVEQAKTQVLEELA | 0.476 |
| HMAVKYTKDDFLYTEKPYEAIYDYKNDPFMHNLKIEQMAQQAAEVGVKTFKGLYKNYVKMREMQRGANV | 0.0263 |
| HMAVNSALVQRNWLIGYRIAEEELQGDNRAEYGASIIKKLAKELTAEYGKGYTKTNLYHFYSFYKT | -0.0399 |
| HMAVNVNGIHLSSQQHEALVSIWRTGRMPEPHAGQKPWLWIQALRRRGLVSGNALRLTDKGRHIVQLLQ | -0.288 |
| HMAVPAALVQAWLELSRRMVAGTQDVGERFAEEARKMHYGETEDRGIRGQATLTEVRDLLDEGIEVLPLLL | -0.439 |
| HMAVPLVRGTVTSSVGTVLLLSVGERDFFLSEGEEKDGVLLQSLSEKSAVVVVSGRAYTLSL | -4.42 |
| HMAVRLADMAAEKIRKMIIENKFDAGEPLSEMRLAEMFNVSRTPIREAIAILEQEGLLTTVHGKGAFIS | -0.896 |
| HMAVSDAAEEYGKAGTPLVILAGKEYGSGSSRDWAAKGPYLQGVRAVLAESYERIHRSNLVGMGIVPLTYK | 0.18 |
| HMAVSDPTAGGIKALMYPNPAQDRLSVALDIPAGLDKQAQMTVTDMMGRVVTQQQVTLNDGFQVFEL | 0.268 |
| HMAVSSYSVKRYIRNMIQAEDPSAPFSDEALRLALLAHGIAVSRRVVTKYRMAMDIPSSSQRRKR | -1.41 |
